Test results from the supplement of paper PMC5998384.

Columns and labels:
HeLa Kyoto [1] = assay: solubility in G1/S (NP-40 vs SDS abundance) (log2 ratio); higher = more soluble; settings: cell cycle stage: G1/S
HeLa Kyoto [2] = assay: solubility change mitosis vs G1/S (difference of NP-40 vs SDS log2 ratios) (log2 ratio difference); higher = more soluble in mitosis
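Wherever solubility change mitosis vs G1/S (difference of NP-40 vs SDS log2 ratios) is given: synchronized HeLa Kyoto cells (double thymidine block for G1/S, nocodazole release for mitosis), protein amounts in NP-40 versus SDS lysates quantified by mass spectrometry, three biological replicates.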
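Wherever solubility in G1/S (NP-40 vs SDS abundance) is given: HeLa Kyoto cells arrested at G1/S by double thymidine block, proteins quantified by TMT10plex mass spectrometry in mild NP-40 versus SDS extracts, three biological replicates.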

Sequence	solubility in G1/S (log2) (HeLa Kyoto [1])	solubility change mitosis (log2) (HeLa Kyoto [2])
MASKKLGADFHGTFSYLDDVPFKTGDKFKTPAKVGLPIGFSLPDCLQVVREVQYDFSLEKKTIEWAEEIKKIEEAEREAECKIAEAEAKVNSKSGPEGDSKMSFSKTHSTATMPPPINPILASLQHNSILTPTRVSSSATKQKVLSPPHIKADFNLADFECEEDPFDNLELKTIDEKEELRNILVGTTGPIMAQLLDNNLPRGGSGSVLQDEEVLASLERATLDFKPLHKPNGFITLPQLGNCEKMSLSSKVSLPPIPAVSNIKSLSFPKLDSDDSNQKTAKLASTFHSTSCLRNGTFQNSLKPSTQSSASELNGHHTLGLSALNLDSGTEMPALTSSQMPSLSVLSVCTEESSPPNTGPTVTPPNFSVSQVPNMPSCPQAYSELQMLSPSERQCVETVVNMGYSYECVLRAMKKKGENIEQILDYLFAHGQLCEKGFDPLLVEEALEMHQCSEEKMMEFLQLMSKFKEMGFELKDIKEVLLLHNNDQDNALEDLMARAGAS [UBAP1]	0.435	0.147
MSAALLRRGLELLAASEAPRDPPGQAKPRGAPVKRPRKTKAIQAQKLRNSAKGKVPKSALDEYRKRECRDHLRVNLKFLTRTRSTVAESVSQQILRQNRGRKACDRPVAKTKKKKAEGTVFTEEDFQKFQQEYFGS [RPS19BP1]	-0.897	0.671
MAAGGSGGRASCPPGVGVGPGTGGSPGPSANAAATPAPGNAAAAAAAAAAAAAAPGPTPPAPPGPGTDAQAAGAERAEEAAGPGAAALQREAAYNWQASKPTVQERFAFLFNNEVLCDVHFLVGKGLSSQRIPAHRFVLAVGSAVFDAMFNGGMATTSTEIELPDVEPAAFLALLKFLYSDEVQIGPETVMTTLYTAKKYAVPALEAHCVEFLKKNLRADNAFMLLTQARLFDEPQLASLCLENIDKNTADAITAEGFTDIDLDTLVAVLERDTLGIREVRLFNAVVRWSEAECQRQQLQVTPENRRKVLGKALGLIRFPLMTIEEFAAGPAQSGILVDREVVSLFLHFTVNPKPRVEFIDRPRCCLRGKECSINRFQQVESRWGYSGTSDRIRFSVNKRIFVVGFGLYGSIHGPTDYQVNIQIIHTDSNTVLGQNDTGFSCDGSASTFRVMFKEPVEVLPNVNYTACATLKGPDSHYGTKGLRKVTHESPTTGAKTCFTFCYAAGNNNGTSVEDGQIPEVIFYT [BTBD2]	-0.317	0.0341
METDESPSPLPCGPAGEAVMESRARPFQALPREQSPPPPLQTSSGAEVMDVGSGGDGQSELPAEDPFNFYGASLLSKGSFSKGRLLIDPNCSGHSPRTARHAPAVRKFSPDLKLLKDVKISVSFTESCRSKDRKVLYTGAERDVRAECGLLLSPVSGDVHACPFGGSVGDGVGIGGESADKKDEENELDQEKRVEYAVLDELEDFTDNLELDEEGAGGFTAKAIVQRDRVDEEALNFPYEDDFDNDVDALLEEGLCAPKKRRTEEKYGGDSDHPSDGETSVQPMMTKIKTVLKSRGRPPTEPLPDGWIMTFHNSGVPVYLHRESRVVTWSRPYFLGTGSIRKHDPPLSSIPCLHYKKMKDNEEREQSSDLTPSGDVSPVKPLSRSAELEFPLDEPDSMGADPGPPDEKDPLGAEAAPGALGQVKAKVEVCKDESVDLEEFRSYLEKRFDFEQVTVKKFRTWAERRQFNREMKRKQAESERPILPANQKLITLSVQDAPTKKEFVINPNGKSEVCILHEYMQRVLKVRPVYNFFECENPSEPFGASVTIDGVTYGSGTASSKKLAKNKAARATLEILIPDFVKQTSEEKPKDSEELEYFNHISIEDSRVYELTSKAGLLSPYQILHECLKRNHGMGDTSIKFEVVPGKNQKSEYVMACGKHTVRGWCKNKRVGKQLASQKILQLLHPHVKNWGSLLRMYGRESSKMVKQETSDKSVIELQQYAKKNKPNLHILSKLQEEMKRLAEEREETRKKPKMSIVASAQPGGEPLCTVDV [DGCR8]	-0.452	0.0203
MARISFSYLCPASWYFTVPTVSPFLRQRVAFLGLFFISCLLLLMLIIDFRHWSASLPRDRQYERYLARVGELEATDTEDPNLNYGLVVDCGSSGSRIFVYFWPRHNGNPHDLLDIKQMRDRNSQPVVKKIKPGISAMADTPEHASDYLRPLLSFAAAHVPVKKHKETPLYILCTAGMRLLPERKQLAILADLVKDLPLEFDFLFSQSQAEVISGKQEGVYAWIGINFVLGRFDHEDESDAEATQELAAGRRRTVGILDMGGASLQIAYEVPTSTSVLPAKQEEAAKILLAEFNLGCDVQHTEHVYRVYVTTFLGFGGNFARQRYEDLVLNETLNKNRLLGQKTGLSPDNPFLDPCLPVGLTDVVERNSQVLHVRGRGDWVSCGAMLSPLLARSNTSQASLNGIYQSPIDFNNSEFYGFSEFFYCTEDVLRIGGRYHGPTFAKAAQDYCGMAWSVLTQRFKNGLFSSHADEHRLKYQCFKSAWMYQVLHEGFHFPYDYPNLRTAQLVYDREVQWTLGAILYKTRFLPLRDLRQEGVRQAHGSWFRLSFVYNHYLFFACILVVLLAIFLYLLRLRRIHHRQTRASAPLDLLWLEEVVPMMGVQVGP [ENTPD7]	-0.358	0.145
MEPRRAAPGVPGWGSREAAGSASAAELVYHLAGALGTELQDLARRFGPEAAAGLVPLVVRALELLEQAAVGPAPDSLQVSAQPAEQELRRLREENERLRRELRAGPQEERALLRQLKEVTDRQRDELRAHNRDLRQRGQETEALQEQLQRLLLVNAELRHKLAAMQTQLRAAQDRERERQQPGEAATPQAKERARGQAGRPGHQHGQEPEWATAGAGAPGNPEDPAEAAQQLGRPSEAGQCRFSREEFEQILQERNELKAKVFLLKEELAYFQRELLTDHRVPGLLLEAMKVAVRKQRKKIKAKMLGTPEEAESSEDEAGPWILLSDDKGDHPPPPESKIQSFFGLWYRGKAESSEDETSSPAPSKLGGEEEAQPQSPAPDPPCSALHEHLCLGASAAPEA [RILP]	0.551	0.11
MDEEPERTKRWEGGYERTWEILKEDESGSLKATIEDILFKAKRKRVFEHHGQVRLGMMRHLYVVVDGSRTMEDQDLKPNRLTCTLKLLEYFVEEYFDQNPISQIGIIVTKSKRAEKLTELSGNPRKHITSLKEAVDMTCHGEPSLYNSLSMAMQTLKHMPGHTSREVLIIFSSLTTCDPSNIYDLIKTLKAAKIRVSVIGLSAEVRVCTVLARETGGTYHVILDESHYKELLTHHLSPPPASSSSECSLIRMGFPQHTIASLSDQDAKPSFSMAHLDGNTEPGLTLGGYFCPQCRAKYCELPVECKICGLTLVSAPHLARSYHHLFPLDAFQEIPLEEYNGERFCYGCQGELKDQHVYVCAVCQNVFCVDCDVFVHDSLHCCPGCIHKIPAPSGV [GTF2H2C]	-0.398	0.181
MNDISQKAEILLSSSKPVPKTYVPKLGKGDVKDKFEAMQRAREERNQRRSRDEKQRRKEQYIREREWNRRKQEIKEMLASDDEEDVSSKVEKAYVPKLTGTVKGRFAEMEKQRQEEQRKRTEEERKRRIEQDMLEKRKIQRELAKRAEQIEDINNTGTESASEEGDDSLLITVVPVKSYKTSGKMKKNFEDLEKEREEKERIKYEEDKRIRYEEQRPSLKEAKCLSLVMDDEIESEAKKESLSPGKLKLTFEELERQRQENRKKQAEEEARKRLEEEKRAFEEARRQMVNEDEENQDTAKIFKGYRPGKLKLSFEEMERQRREDEKRKAEEEARRRIEEEKKAFAEARRNMVVDDDSPEMYKTISQEFLTPGKLEINFEELLKQKMEEEKRRTEEERKHKLEMEKQEFEQLRQEMGEEEEENETFGLSREYEELIKLKRSGSIQAKNLKSKFEKIGQLSEKEIQKKIEEERARRRAIDLEIKEREAENFHEEDDVDVRPARKSEAPFTHKVNMKARFEQMAKAREEEEQRRIEEQKLLRMQFEQREIDAALQKKREEEEEEEGSIMNGSTAEDEEQTRSGAPWFKKPLKNTSVVDSEPVRFTVKVTGEPKPEITWWFEGEILQDGEDYQYIERGETYCLYLPETFPEDGGEYMCKAVNNKGSAASTCILTIESKN [NEXN]	-0.858	0.21
MLTEASLSIWGWGSLGIVLFLITFGPFVIFYLTFYILCFVGGGLVVTLLFGKTNSEKYLEQCEHSFLPPTSPGVPKCLEEMKREARTIKIDRRLTGANIIDEPLQQVIQFSLRDYVQYWYYTLSDDESFLLEIRQTLQNALIQFATRSKEIDWQPYFTTRIVDDFGTHLRVFRKAQQKITEKDDQVKGTAEDLVDTFFEVEVEMEKEVCRDLVCTSPKDEEGFLRDLCEVLLYLLLPPGDFQNKIMRYFVREILARGILLPLINQLSDPDYINQYVIWMIRDSNCNYEAFMNIIKLSDNIGELEAVRDKAAEELQYLRSLDTAGDDINTIKNQINSLLFVKKVCDSRIQRLQSGKEINTVKLAANFGKLCTVPLDSILVDNVALQFFMDYMQQTGGQAHLFFWMTVEGYRVTAQQQLEVLLSRQRDGKHQTNQTKGLLRAAAVGIYEQYLSEKASPRVTVDDYLVAKLADTLNHEDPTPEIFDDIQRKVYELMLRDERFYPSFRQNALYVRMLAELDMLKDPSFRGSDDGDGESFNGSPTGSINLSLDDLSNVSSDDSVQLHAYISDTVYADYDPYAVAGVCNDHGKTYALYAITVHRRNLNSEEMWKTYRRYSDFHDFHMRITEQFESLSSILKLPGKKTFNNMDRDFLEKRKKDLNAYLQLLLAPEMMKASPALAHYVYDFLENKAYSKGKGDFARKMDTFVNPLRNSMRNVSNAVKSLPDSLAEGMTKMSDNMGKMSERLGQDIKQSFFKVPPLIPKTDSDPEHRRVSAQLDDNVDDNIPLRVMLLLMDEVFDLKERNQWLRRNIKNLLQQLIRATYGDTINRKIVDHVDWMTSPEQVADSVKRFRDAFWPNGILAEAVPCRDKSIRMRTRVAGKTKLLAIMPDELKHIIGAETTRKGILRVFEMFQHNQLNRRMVYVFLEGFLETLFPQYKFRELFNKLHSRSKQMQKYKQKLQTTQAPSLQKR [SNX13]	-0.221	-0.0268
MLEPQENGVIDLPDYEHVEDETFPPFPPPASPERQDGEGTEPDEESGNGAPVRVPPKRTVKRNIPKLDAQRLISERGLPALRHVFDKAKFKGKGHEAEDLKMLIRHMEHWAHRLFPKLQFEDFIDRVEYLGSKKEVQTCLKRIRLDLPILHEDFVSNNDEVAENNEHDVTSTELDPFLTNLSESEMFASELSRSLTEEQQQRIERNKQLALERRQAKLLSNSQTLGNDMLMNTPRAHTVEEVNTDEDQKEESNGLNEDILDNPCNDAIANTLNEEETLLDQSFKNVQQQLDATSRNITEAR [TIPIN]	0.321	0.273
MAAEALAAEAVASRLERQEEDIRWLWSEVERLRDEQLNAPYSCQAEGPCLTREVAQLRAENCDLRHRLCSLRLCLAEERSRQATLESAELEAAQEAGAQPPPSQSQDKDMKKKKMKESEADSEVKHQPIFIKERLKLFEILKKDHQLLLAIYGKKGDTSNIITVRVADGQTVQGEVWKTTPYQVAAEISQELAESTVIAKVNGELWDLDRPLEGDSSLELLTFDNEEAQAVYWHSSAHILGEAMELYYGGHLCYGPPIENGFYYDMFIEDRAVSSTELSALENICKAIIKEKQPFERLEVSKEILLEMFKYNKFKCRILNEKVNTATTTVYRCGPLIDLCKGPHVRHTGKIKTIKIFKNSSTYWEGNPEMETLQRIYGISFPDNKMMRDWEKFQEEAKNRDHRKIGKEQELFFFHDLSPGSCFFLPRGAFIYNTLTDFIREEYHKRDFTEVLSPNMYNSKLWEASGHWQHYSENMFTFEIEKDTFALKPMNCPGHCLMFAHRPRSWREMPIRFADFGVLHRNELSGTLSGLTRVRRFQQDDAHIFCTVEQIEEEIKGCLQFLQSVYSTFGFSFQLNLSTRPENFLGEIEMWNEAEKQLQNSLMDFGEPWKMNPGDGAFYGPKIDIKIKDAIGRYHQCATIQLDFQLPIRFNLTYVSKDGDDKKRPVIIHRAILGSVERMIAILSENYGGKWPFWLSPRQVMVIPVGPTCEKYALQVSSEFFEEGFMADVDLDHSCTLNKKIRNAQLAQYNFILVVGEKEKIDNAVNVRTRDNKIHGEILVTSAIDKLKNLRKTRTLNAEEAF [TARSL2]	-0.498	0.191
